Where two headings read alike, the source gives them in different places.
Experiments:
[1] = target: T1, GRP receptors on CF PAC-1 cells (Homo sapiens, UniProt P30550); test: Competitive cell binding vs 125I-Tyr4-BBN, CF PAC-1 cells
T1 construct: two different human cancer cell lines that express GRP receptors (i.e., CF-PAC1 and PC-3 cell lines); endogenous in cells; host or cells: CFPAC-1 human pancreatic cancer cells (whole cells)

[2] = target: T2, GRP receptors on PC-3 cells (Homo sapiens, UniProt P30550); test: Competitive cell binding vs 125I-Tyr4-BBN, PC-3 cells
T2 construct: two different human cancer cell lines that express GRP receptors (i.e., CF-PAC1 and PC-3 cell lines); host or cells: PC-3 human prostate cancer cells (whole cells)

[3] = target: T3, GRP receptors on Swiss 3T3 cells (Mus musculus, UniProt P21729); test: Competitive cell binding vs 125I-Tyr4-BBN, Swiss 3T3 cells
T3 construct: endogenous in cells; host or cells: Swiss 3T3 mouse fibroblasts (whole cells)
Experimental: The binding affinities of the synthetic BBN derivatives were assessed for GRP receptors on Swiss 3T3 cells and, in some cases, on a variety of human cancer cell lines, that express GRP receptors. […] The cell binding assay methods used to measure the IC50's is standard and used techniques previously reported [Jensen et al., 1993; Cai et al., 1994; Cai et al., 1992]. The methods used for determining IC50's for all GRP receptor binding compounds on all cell lines was similar. The specific method used to measure IC50's on Swiss 3T3 cells is briefly described as follows:
(§1) Swiss 3T3 mouse fibroblasts are grown to confluence in 48 well microtiter plates. […] The growth media was removed, the cells were washed twice with incubation media, and incubation media was returned to the cells. ^125I-Tyr4-BBN (0.01 uCi) was added to each well in the presence of increasing concentrations of the appropriate competitive peptide. Typical concentrations of displacing peptide ranged from 10-12 to 10-5 moles of displacing ligand per well. The cells were incubated at 37° C. for forty minutes in a 95% […]/5% CO2 humidified environment. At forty minutes post initiation of the incubation, the medium was discarded, and the cells were washed twice with cold incubation media. The cells were harvested from the wells following incubation in a trypsin/EDTA solution for five minutes at 37° C. Subsequently, the radioactivity, per well, was determined and the maximum % total uptake of the radiolabeled peptide was determined and normalized to 100%.
The binding affinities of the synthetic BBN derivatives were assessed for GRP receptors on Swiss 3T3 cells, PC-3 cells and CF PAC-1 cells. The IC50's of each of derivative were determined relative to (i.e., in competition with) ^125I-Tyr^4-BBN. The cell binding assay methods used to measure the IC50's is standard and was used by techniques previously reported [Jensen et al., 1993; Cai et al., 1992; Cai et al., 1994]. The methods used for determining IC50's with all BBN analogue binding to GRP receptors present on all three cell lines were similar. The specific method used to measure IC50's on Swiss 3T3 cells, is briefly described as follows:
as §1, with “microliter” for “microtiter”, “^125I-Tyr^4-BBN” for “^125I-Tyr4-BBN”, “μCi)” for “uCi)”, “10^−12” for “10-12”, “10^−5” for “10-5”, “100%. A similar procedure was used in performing cell binding assays with both the PC-3 and CFa-PAC-1 human cancer cell lines.” for “100%.”

[4] = tested on: PC-3 human tumor xenografts; test: in vivo
Experimental: In vivo pharmacokinetic studies in human tumor bearing SCID mice. […] The xenograft models were produced by bilateral flank inoculation of 5×10^6 cells (PC-3 or MDA-MB-231 cells) per site. Four to six weeks post inoculation, palpable tumors were observed. At this point, the mice were injected with 4 μCi of the complex in […] of isotonic saline via the tail vein. The mice were euthanized and tissues and organs were excised from the animals at selected times post-injection (p.i.), including 15 minutes, 30 minutes, 1 hour, 4 hours, 24 hours, 48 hours, and 72 hours p.i. Subsequently, the tissues and organs were weighed and counted in a NaI well counter and the percent injected dose (% ID) and % ID/g of each organ or tissue calculated.
The mice were injected with 4 μCi of the complex in 100 μL of isotonic saline via the tail vein. The mice were euthanized by cervical dislocation. Tissues and organs were excised from the animals following at 1 hour, 4 hour, and 24 hours post-injection (p.i.). Subsequently, the tissues and organs were weighed and counted in a NaI well counter and the percent injected dose (% ID) and % ID/g of each organ or tissue calculated.

[5] = tested on: MDA-MB-231 human tumor xenografts;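 note: SCID mice bearing bilateral flank PC-3 or MDA-MB-231 xenografts, tail-vein dosing, organs sampled from 15 min to 72 h post-injection, radioactivity measured with NaI well counter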
[6] = Biodistribution of radiometal-DOTA-BBN conjugates in CF1 normal mice; conditions: 1 hour post-injection
PC-3 cells = test: Internalization and efflux of In-DOTA-8-Aoc-BBN in PC-3 cells; type: cell-based, human
Experimental: Internalization and efflux studies. […] The percent of cell-associated activity as a function of time (in the incubating medium at 37° C.) was determined. The percentage radioactivity trapped in the cells was determined after removing activity bound to the surface of the cells by washing with a pH-2.5 (0.2M acetic acid and 0.5M NaCl) buffer 1, 2, 3 and 4 hours afterwards.

Swiss 3T3 cells = test: Internalization and efflux, Swiss 3T3 cells; type: cell-based, mouse; conditions: sixty minutes / one hour post-washing
Experimental: After establishment of equilibrium after a forty minute incubation, the media surrounding the cells was removed and the cells were washed with fresh media containing no radioactivity. […] The cells were then incubated in a 0.2M acetic acid solution (pH 2.5) which caused the surface proteins (incl., GRP receptors) to denature and release all surface bound radioactive materials. After removing this buffer and washing, the cells were counted again.
To determine intracellular retention, a similar method was employed. […] FIG. 12 is a graph of results of efflux experiments using Swiss 3T3 cells with ^125I-Lys^3-BBN.

T1 sequence (P30550 whole entry): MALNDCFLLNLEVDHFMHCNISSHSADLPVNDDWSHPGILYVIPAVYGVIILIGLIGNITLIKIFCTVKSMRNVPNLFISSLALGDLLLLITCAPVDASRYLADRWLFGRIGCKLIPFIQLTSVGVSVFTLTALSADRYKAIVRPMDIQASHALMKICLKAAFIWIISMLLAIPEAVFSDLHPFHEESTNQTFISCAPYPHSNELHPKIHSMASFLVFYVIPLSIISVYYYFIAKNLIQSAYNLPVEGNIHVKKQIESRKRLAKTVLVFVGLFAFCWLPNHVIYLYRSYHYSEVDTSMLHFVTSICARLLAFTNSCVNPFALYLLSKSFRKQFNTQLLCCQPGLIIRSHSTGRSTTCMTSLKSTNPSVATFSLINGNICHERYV
T2 sequence (P30550 whole entry): as above
T3 sequence (P21729 whole entry): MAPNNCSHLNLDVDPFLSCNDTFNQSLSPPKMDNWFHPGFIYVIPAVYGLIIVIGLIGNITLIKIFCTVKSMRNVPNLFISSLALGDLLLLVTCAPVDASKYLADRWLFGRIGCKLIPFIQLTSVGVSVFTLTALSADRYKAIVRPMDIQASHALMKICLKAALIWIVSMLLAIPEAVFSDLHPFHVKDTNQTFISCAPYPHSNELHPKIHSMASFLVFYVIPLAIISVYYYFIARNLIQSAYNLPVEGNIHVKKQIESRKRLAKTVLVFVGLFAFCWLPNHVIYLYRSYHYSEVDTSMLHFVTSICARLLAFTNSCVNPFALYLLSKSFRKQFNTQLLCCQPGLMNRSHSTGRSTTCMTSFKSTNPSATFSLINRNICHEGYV

CSCC[C@H](NC(=O)[C@H](CC(C)C)NC(=O)[C@H](Cc1c[nH]cn1)NC(=O)CNC(=O)[C@@H](NC(=O)[C@H](C)NC(=O)[C@H](Cc1c[nH]c2ccccc12)NC(=O)[C@H](CCC(N)=O)NC(=O)CNC(=O)CNC(=O)COC1CSCCCSCCCSCCCSC1)C(C)C)C(N)=O [BBN-98]
IC50 [1]: 1 to 6 nM | IC50 ([2]; PC-3 cells, read-out: IC50): 1 to 6 nM | IC50 [3]: 1 to 6 nM

CSCC[C@H](NC(=O)[C@H](CC(C)C)NC(=O)[C@H](Cc1cnc[nH]1)NC(=O)CNC(=O)[C@@H](NC(=O)[C@H](C)NC(=O)[C@H](Cc1c[nH]c2ccccc12)NC(=O)[C@H](CCC(N)=O)NC(=O)CCCCCCCNC(=O)CN1CCN(CC(=O)O)CCN(CC(=O)O)CCN(CC(=O)O)CC1)C(C)C)C(N)=O [111In-DOTA-8-Aoc-BBN[7-14]NH2] [metal not drawn]
Avg % ID, Blood ([4]; 1 hr): 0.92±0.58 % ID | Avg % ID, Carcass ([4]; 1 hr): 13.55 ± 6.05 % ID | Avg % ID, Liver ([4]; 1 hr): 1.41 ± 0.32 % ID | Avg % ID, Lung ([4]; 1 hr): 0.09 ± 0.07 % ID | Avg % ID, Pancreas ([4]; 1 hr): 3.49 ± 2.15 % ID | Avg % ID, Spleen ([4]; 1 hr): 0.09 ± 0.07 % ID | Avg % ID/gm, Liver ([4]; 1 hr): 1.34 ± 0.25 % ID/gm | Avg % ID/gm, Lung ([4]; 1 hr): 0.50 ± 0.39 % ID/gm | Avg % ID/gm, Pancreas ([4]; 1 hr): 18.80 ± 10.97 % ID/gm | Avg % ID/gm, Spleen ([4]; 1 hr): 1.39 ± 1.17 % ID/gm | Avg % ID, Carcass ([4]; 4 hrs): 2.92 ± 0.64 % ID | Avg % ID, L. Intestine ([4]; 4 hrs): 6.04 ± 2.05 % ID | Avg % ID, Liver ([4]; 4 hrs): 1.57 ± 0.72 % ID | Avg % ID, Muscle ([4]; 4 hrs): 0.0 ± 0.00 % ID | Avg % ID, Tumor ([4]; 4 hrs): 0.18 ± 0.17 % ID | Avg % ID/gm, Blood ([4]; 4 hrs): 0.27 ± 0.02 % ID/gm | Avg % ID/gm, Liver ([4]; 4 hrs): 1.44 ± 0.57 % ID/gm | Avg % ID/gm, Spleen ([4]; 4 hrs): 1.59 ± 0.27 % ID/gm | Avg % ID/gm, Stomach ([4]; 4 hrs): 0.96 ± 0.57 % ID/gm | excretion through the renal pathway ([4]; 24 hours p.i.): 87 % ID | Avg % ID, Carcass ([4]; 24 hrs): 1.69 ± 0.56 % ID | Avg % ID, Heart ([4]; 24 hrs): 0.00 ± 0.01 % ID | Avg % ID, Pancreas ([4]; 24 hrs): 1.19 ± 0.49 % ID | Avg % ID, Stomach ([4]; 24 hrs): 0.09 ± 0.02 % ID | Avg % ID/gm, Blood ([4]; 24 hrs): 0.10 ± 0.03 % ID/gm | Avg % ID/gm, Kidney ([4]; 24 hrs): 1.18 ± 0.14 % ID/gm | Avg % ID/gm, Lung ([4]; 24 hrs): 0.09 ± 0.07 % ID/gm | Avg % ID/gm, Pancreas ([4]; 24 hrs): 6.78 ± 1.15 % ID/gm | Avg % ID/gm, S. Intestine ([4]; 24 hrs): 0.89 ± 0.16 % ID/gm | Avg % ID/gm, Spleen ([4]; 24 hrs): 0.46 ± 0.20 % ID/gm | Avg % ID/gm, Stomach ([4]; 24 hrs): 0.30 ± 0.05 % ID/gm | Avg % ID, Carcass ([4]; 48 hrs): 0.57 ± 0.02 % ID | Avg % ID, Muscle ([4]; 48 hrs): 0.00 ± 0.00 % ID | Avg % ID/gm, Spleen ([4]; 48 hrs): 0.22 ± 0.22 % ID/gm | Avg % ID, Heart ([4]; 72 hrs): 0.00 ± 0.00 % ID | Avg % ID, Lung ([4]; 72 hrs): 0.00 ± 0.00 % ID | Avg % ID, Muscle ([4]; 72 hrs): 0.00 ± 0.00 % ID | Avg % ID/gm, Blood ([4]; 72 hrs): 0.01 ± 0.02 % ID/gm | Avg % ID/gm, Heart ([4]; 72 hrs): 0.01 ± 0.01 % ID/gm | Avg % ID/gm, Kidney ([4]; 72 hrs): 0.20 ± 0.02 % ID/gm | Avg % ID/gm, Muscle ([4]; 72 hrs): 0.01 ± 0.02 % ID/gm | initial tumor uptake retained ([5]; 4 hours): 46% | initial tumor uptake retained ([5]; 24 hours): 28% | Avg % ID, Blood [6]: 0.66 ± 0.13 % ID | Avg % ID, Carcass [6]: 5.01 ± 0.47 % ID | Avg % ID, Liver [6]: 1.02 ± 0.08 % ID | Avg % ID, Lung [6]: 0.07 ± 0.02 % ID | Avg % ID/gm, Heart [6]: 0.05 ± 0.02 % ID/gm | Avg % ID/gm, Kidney [6]: 2.37 ± 0.31 % ID/gm | Avg % ID/gm, L. Intestine [6]: 2.66 ± 1.07 % ID/gm | Avg % ID/gm, Lung [6]: 0.31 ± 0.07 % ID/gm | Avg % ID/gm, S. Intestine [6]: 4.43 ± 0.90 % ID/gm

CSCC[C@H](NC(=O)[C@H](CC(C)C)NC(=O)[C@H](Cc1c[nH]cn1)NC(=O)CNC(=O)[C@@H](NC(=O)[C@H](C)NC(=O)[C@H](Cc1c[nH]c2ccccc12)NC(=O)[C@H](CCC(N)=O)NC(=O)CCCCNC(=O)COC1CSCCCSCCCSCCCSC1)C(C)C)C(N)=O [RhCl2BBN-37]
IC50 [1]: ~7 nM | IC50 ([2]; PC-3 cells, read-out: IC50): ~7 nM | IC50 ([2]; Prostate CA, PC-3, read-out: IC50 (Mean Value)): 7 nM | IC50 [3]: 4.76 ± 0.79 nM

CSCC[C@H](NC(=O)[C@H](CC(C)C)NC(=O)[C@H](Cc1c[nH]cn1)NC(=O)CNC(=O)[C@@H](NC(=O)[C@H](C)NC(=O)[C@H](Cc1c[nH]c2ccccc12)NC(=O)[C@H](CCC(N)=O)NC(=O)CNC(=O)COC1CSCCCSCCCSCCCSC1)C(C)C)C(N)=O [BBN-99]
IC50 [1]: 1 to 6 nM | IC50 ([2]; PC-3 cells, read-out: IC50): 1 to 6 nM | IC50 [3]: 1 to 6 nM

CSCC[C@H](NC(=O)[C@H](CC(C)C)NC(=O)[C@H](Cc1c[nH]cn1)NC(=O)CNC(=O)[C@@H](NC(=O)[C@H](C)NC(=O)[C@H](Cc1c[nH]c2ccccc12)NC(=O)[C@H](CCC(N)=O)NC(=O)CCCCCCCNC(=O)CN1CCN(CC(=O)O)CCN(CC(=O)O)CCN(CC(=O)O)CC1)C(C)C)C(N)=O [In-DOTA-8-Aoc-BBN[7-14]NH2]
internalization (PC-3 cells): rapid receptor mediated endocytosis | retention within cells (PC-3 cells): remained retained within the cells for a prolonged time period

CC(C)C[C@H](NC(=O)[C@H](Cc1c[nH]cn1)NC(=O)CNC(=O)[C@@H](NC(=O)[C@H](C)NC(=O)[C@H](Cc1c[nH]c2ccccc12)NC(=O)[C@H](CCC(N)=O)NC(=O)CCCCNC(=O)COC1CSCCCSCCCSCCCSC1)C(C)C)C(N)=O [105Rh-BBN-61]
IC50 [3]: 4.1 nM | activity remaining associated with the cells (Swiss 3T3 cells): less than 10%
